From patent US9556236 (UNIVERSITY OF SOUTH FLORIDA, dated 2017)
Positions of bridges follow the written chain, without caps; N, C: chain ends. No end group written: not given here.

Target: RSV fusion (F) protein (respiratory syncytial virus (strains …, UniProt P03420 26-574))
Assay: cell-based or functional assay

RSV fusion (F) protein (respiratory syncytial virus, sequence (P03420 26-574): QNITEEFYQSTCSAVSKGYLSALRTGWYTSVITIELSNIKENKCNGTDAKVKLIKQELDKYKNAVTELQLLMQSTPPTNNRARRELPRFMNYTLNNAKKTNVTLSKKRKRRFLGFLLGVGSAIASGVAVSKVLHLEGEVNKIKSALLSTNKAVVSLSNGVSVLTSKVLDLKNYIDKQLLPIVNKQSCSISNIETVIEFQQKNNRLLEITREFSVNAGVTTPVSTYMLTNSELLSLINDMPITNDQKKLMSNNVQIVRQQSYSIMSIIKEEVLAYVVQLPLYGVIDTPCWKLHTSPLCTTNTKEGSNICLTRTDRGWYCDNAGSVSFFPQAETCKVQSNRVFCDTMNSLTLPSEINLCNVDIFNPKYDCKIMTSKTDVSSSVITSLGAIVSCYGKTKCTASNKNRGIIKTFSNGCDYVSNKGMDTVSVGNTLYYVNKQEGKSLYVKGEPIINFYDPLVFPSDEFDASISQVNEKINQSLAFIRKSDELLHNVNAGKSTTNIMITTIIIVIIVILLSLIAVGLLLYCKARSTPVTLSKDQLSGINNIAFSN

## FDACISQVNECINQSLAFIRKSDELLHNVNAGKST (disulfide 4-11) [HR2-S]
  A2 RSV viral titers, plaque assay (time point not clearly stated): 0.1 fold decrease
  A2 RSV viral titers, plaque assay on HEp2 cells, 24 h to 96 h pi: ~0.2 fold reduction
  A2 RSV viral titers, plaque assay, 96 h pi: 0.1 fold decrease
  RA2 RSV viral titers, plaque assay (time point not clearly stated): 100 fold decrease
  RA2 RSV viral titers, plaque assay, 96 h pi: 20 fold smaller

## DACISQVNECINQSLAFICKSDELLCNT (not fully specified (bridges); also: predicted disulfides C3-C10 and C19-C26) [HR2-D]
  A2 RSV viral titers, plaque assay (time point not clearly stated): 100 fold reduction
  A2 RSV viral titers, plaque assay on HEp2 cells, 24 h to 96 h pi: ≥ 100 fold reduction
  A2 RSV viral titers, plaque assay, 96 h pi: 50000 fold reduction
  RA2 RSV viral titers, plaque assay (time point not clearly stated): 100 fold decrease
  RA2 RSV viral titers, plaque assay on HEp2 cells, 24 h to 96 h pi: ≥ 100 fold reduction
  RA2 RSV viral titers, plaque assay, 96 h pi: 1000 fold less
